According to patent US7696168 (TUFTS MEDICAL CENTER, dated 2010):
The star is where a group is joined. Palmitoyl = CCCCCCCCCCCCCCCC(=O)*

What was measured:
Assay in all cases: cell-based or functional assay
PAR1 S309P mutant = target: T1, PAR1 S309P mutant (human, UniProt P25116 42-425)
T1 sequence (looked up): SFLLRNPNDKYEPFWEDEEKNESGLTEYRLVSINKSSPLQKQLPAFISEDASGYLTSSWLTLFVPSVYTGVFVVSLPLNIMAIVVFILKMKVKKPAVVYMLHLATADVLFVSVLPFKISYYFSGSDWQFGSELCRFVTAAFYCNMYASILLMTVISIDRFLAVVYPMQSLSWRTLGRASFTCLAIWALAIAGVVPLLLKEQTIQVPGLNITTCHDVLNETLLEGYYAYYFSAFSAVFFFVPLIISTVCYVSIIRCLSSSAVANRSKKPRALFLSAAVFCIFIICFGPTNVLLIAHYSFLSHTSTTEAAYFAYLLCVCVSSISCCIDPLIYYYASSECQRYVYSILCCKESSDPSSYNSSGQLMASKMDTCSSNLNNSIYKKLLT

murine PAR4 = target: T2, murine PAR4 (mouse, UniProt O88634 60-396)
T2 sequence (looked up): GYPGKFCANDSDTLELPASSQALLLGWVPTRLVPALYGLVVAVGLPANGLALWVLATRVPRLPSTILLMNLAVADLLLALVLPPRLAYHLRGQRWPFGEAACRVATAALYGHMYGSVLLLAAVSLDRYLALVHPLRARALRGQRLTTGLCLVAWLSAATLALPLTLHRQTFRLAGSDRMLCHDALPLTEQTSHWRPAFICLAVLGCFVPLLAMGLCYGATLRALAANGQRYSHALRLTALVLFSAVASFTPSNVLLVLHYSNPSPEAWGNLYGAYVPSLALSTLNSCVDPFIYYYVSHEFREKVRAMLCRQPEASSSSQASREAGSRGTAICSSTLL

[1] = target: rat somatostatin receptor (SSTR2) (rat, UniProt P30680 1-369)
human PAR1 = target: T3, human PAR1 (human, UniProt P25116 42-425)
T3 sequence (looked up): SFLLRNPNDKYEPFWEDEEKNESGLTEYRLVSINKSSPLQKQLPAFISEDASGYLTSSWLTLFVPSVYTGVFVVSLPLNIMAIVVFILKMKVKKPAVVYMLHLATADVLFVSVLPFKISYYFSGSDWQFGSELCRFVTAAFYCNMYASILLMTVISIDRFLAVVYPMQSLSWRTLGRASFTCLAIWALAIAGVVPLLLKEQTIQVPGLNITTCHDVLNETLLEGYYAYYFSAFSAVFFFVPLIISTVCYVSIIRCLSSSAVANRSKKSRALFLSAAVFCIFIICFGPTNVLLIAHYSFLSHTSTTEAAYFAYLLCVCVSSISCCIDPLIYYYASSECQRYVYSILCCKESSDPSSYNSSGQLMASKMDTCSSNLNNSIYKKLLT

[2] = target: T4, human cholecystokinin A receptor (CCKA) (human, UniProt P32238 1-428)
T4 sequence (looked up): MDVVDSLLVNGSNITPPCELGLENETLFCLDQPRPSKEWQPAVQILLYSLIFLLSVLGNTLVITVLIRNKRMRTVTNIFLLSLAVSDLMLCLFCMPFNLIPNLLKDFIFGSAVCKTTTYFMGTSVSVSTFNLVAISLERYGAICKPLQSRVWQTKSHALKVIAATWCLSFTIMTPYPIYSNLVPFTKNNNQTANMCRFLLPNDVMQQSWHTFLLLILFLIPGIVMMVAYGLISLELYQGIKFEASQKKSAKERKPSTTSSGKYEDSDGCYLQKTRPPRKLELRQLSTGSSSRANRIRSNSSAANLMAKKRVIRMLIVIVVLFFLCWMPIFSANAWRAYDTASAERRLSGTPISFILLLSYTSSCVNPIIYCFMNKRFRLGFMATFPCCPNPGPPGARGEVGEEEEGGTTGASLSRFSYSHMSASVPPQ

[3] = target: T5, human cholecystokinin B receptor (CCKB) (human, UniProt P32239 1-447)
T5 sequence (looked up): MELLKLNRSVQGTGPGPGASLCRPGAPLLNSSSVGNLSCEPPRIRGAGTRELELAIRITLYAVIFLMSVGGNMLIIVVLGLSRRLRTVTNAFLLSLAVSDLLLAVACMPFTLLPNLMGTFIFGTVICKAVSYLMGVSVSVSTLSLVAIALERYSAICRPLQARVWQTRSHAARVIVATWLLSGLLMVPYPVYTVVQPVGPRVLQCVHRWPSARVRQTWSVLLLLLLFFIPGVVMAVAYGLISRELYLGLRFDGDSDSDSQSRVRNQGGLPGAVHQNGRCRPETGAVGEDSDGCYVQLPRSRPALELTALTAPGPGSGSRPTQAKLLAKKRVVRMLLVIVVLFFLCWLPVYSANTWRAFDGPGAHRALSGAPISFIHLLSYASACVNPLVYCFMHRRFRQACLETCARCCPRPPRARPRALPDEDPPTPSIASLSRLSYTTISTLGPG

MC4 receptor (MC4R) = MC4 receptor (MC4R) (human, UniProt P32245 1-332)
Chain of MC4 receptor (MC4R) (P32245 whole entry): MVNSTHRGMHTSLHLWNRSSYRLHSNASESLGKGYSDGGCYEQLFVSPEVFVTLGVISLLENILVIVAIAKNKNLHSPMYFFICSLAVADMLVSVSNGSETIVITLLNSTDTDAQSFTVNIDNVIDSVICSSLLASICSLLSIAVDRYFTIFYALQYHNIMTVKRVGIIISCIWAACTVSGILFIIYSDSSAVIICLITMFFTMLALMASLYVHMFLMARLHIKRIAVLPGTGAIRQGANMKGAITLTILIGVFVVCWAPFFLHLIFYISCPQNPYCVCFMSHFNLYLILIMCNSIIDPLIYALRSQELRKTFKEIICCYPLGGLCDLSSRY

Chain of rat somatostatin receptor (SSTR2) (P30680 whole entry): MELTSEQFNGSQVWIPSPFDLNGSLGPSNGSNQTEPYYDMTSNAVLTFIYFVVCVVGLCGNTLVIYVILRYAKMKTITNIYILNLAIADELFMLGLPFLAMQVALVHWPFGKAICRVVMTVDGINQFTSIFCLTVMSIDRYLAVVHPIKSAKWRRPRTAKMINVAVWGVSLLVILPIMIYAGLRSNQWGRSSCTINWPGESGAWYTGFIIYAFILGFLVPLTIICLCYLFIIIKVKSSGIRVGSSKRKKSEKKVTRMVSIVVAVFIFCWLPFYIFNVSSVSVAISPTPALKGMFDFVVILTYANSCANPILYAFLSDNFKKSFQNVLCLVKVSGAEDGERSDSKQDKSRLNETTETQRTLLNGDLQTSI

Work on thrombin (enzyme) yielded a loss of potency against wild type PAR1 (InsP) (PAR1 S309P mutant) of 17 fold and an EC50, aggregation of murine platelets by thrombin (murine PAR4) of 0.6 nM.

B1: S2pal-23 (Pal-KVKSSGIRVGSSKRKKSEKKVTK) (peptide)
peptide: Palmitoyl-KVKSSGIRVGSSKRKKSEKKVTK-NH2
SMILES: CCCCCCCCCCCCCCCC(=O)N[C@@H](CCCCN)C(=O)N[C@H](C(=O)N[C@@H](CCCCN)C(=O)N[C@@H](CO)C(=O)N[C@@H](CO)C(=O)NCC(=O)N[C@H](C(=O)N[C@@H](CCCNC(=N)N)C(=O)N[C@H](C(=O)NCC(=O)N[C@@H](CO)C(=O)N[C@@H](CO)C(=O)N[C@@H](CCCCN)C(=O)N[C@@H](CCCNC(=N)N)C(=O)N[C@@H](CCCCN)C(=O)N[C@@H](CCCCN)C(=O)N[C@@H](CO)C(=O)N[C@@H](CCC(=O)O)C(=O)N[C@@H](CCCCN)C(=O)N[C@@H](CCCCN)C(=O)N[C@H](C(=O)N[C@H](C(=O)N[C@@H](CCCCN)C(N)=O)[C@@H](C)O)C(C)C)C(C)C)[C@@H](C)CC)C(C)C
B1 was tested, and the “Antagonist IC50 (InsP formation, against 1 µM …)” value [1] was 2000 nM.

B2: P1pal-12 (Pal-RCLSSSAVANRS) (peptide)
peptide: Palmitoyl-RCLSSSAVANRS-NH2
SMILES: CCCCCCCCCCCCCCCC(=O)N[C@@H](CCCNC(=N)N)C(=O)N[C@@H](CS)C(=O)N[C@@H](CC(C)C)C(=O)N[C@@H](CO)C(=O)N[C@@H](CO)C(=O)N[C@@H](CO)C(=O)N[C@@H](C)C(=O)N[C@H](C(=O)N[C@@H](C)C(=O)N[C@@H](CC(N)=O)C(=O)N[C@@H](CCCNC(=N)N)C(=O)N[C@@H](CO)C(N)=O)C(C)C
In the case of B2, the “Antagonist IC50 (InsP formation, against 0.1 nM thrombin)” value (human PAR1) is reported as 5000 nM.

B3: Apal-19F (Pal-RIRSNSSAANLMAKKRVIEF) (peptide)
peptide: Palmitoyl-RIRSNSSAANLMAKKRVIEF-NH2
SMILES: CCCCCCCCCCCCCCCC(=O)N[C@@H](CCCNC(=N)N)C(=O)N[C@H](C(=O)N[C@@H](CCCNC(=N)N)C(=O)N[C@@H](CO)C(=O)N[C@@H](CC(N)=O)C(=O)N[C@@H](CO)C(=O)N[C@@H](CO)C(=O)N[C@@H](C)C(=O)N[C@@H](C)C(=O)N[C@@H](CC(N)=O)C(=O)N[C@@H](CC(C)C)C(=O)N[C@@H](CCSC)C(=O)N[C@@H](C)C(=O)N[C@@H](CCCCN)C(=O)N[C@@H](CCCCN)C(=O)N[C@@H](CCCNC(=N)N)C(=O)N[C@H](C(=O)N[C@H](C(=O)N[C@@H](CCC(=O)O)C(=O)N[C@@H](Cc1ccccc1)C(N)=O)[C@@H](C)CC)C(C)C)[C@@H](C)CC
For B3, the “Agonist EC50 (activating phase, InsP formation)” value (“Agonist EC50” below) [2] was 200 nM, the “Agonist Efficacy (% of full response to 300 nM CCK-8)” value [2] was < 10% and the “Agonist IC50 (inhibitory phase, InsP formation)” value [2] was 2000 nM.

B4: P1pal-19E (Pal-RCESSSAEANRSKKERELF) (peptide)
peptide: Palmitoyl-RCESSSAEANRSKKERELF-NH2
SMILES: CCCCCCCCCCCCCCCC(=O)N[C@@H](CCCNC(=N)N)C(=O)N[C@@H](CS)C(=O)N[C@@H](CCC(=O)O)C(=O)N[C@@H](CO)C(=O)N[C@@H](CO)C(=O)N[C@@H](CO)C(=O)N[C@@H](C)C(=O)N[C@@H](CCC(=O)O)C(=O)N[C@@H](C)C(=O)N[C@@H](CC(N)=O)C(=O)N[C@@H](CCCNC(=N)N)C(=O)N[C@@H](CO)C(=O)N[C@@H](CCCCN)C(=O)N[C@@H](CCCCN)C(=O)N[C@@H](CCC(=O)O)C(=O)N[C@@H](CCCNC(=N)N)C(=O)N[C@@H](CCC(=O)O)C(=O)N[C@@H](CC(C)C)C(=O)N[C@@H](Cc1ccccc1)C(N)=O
With B4 the “Agonist EC50” value (human PAR1) was 2500 nM, the “Agonist Efficacy (% of full response to extracellular agonist)” value (human PAR1) was 11% and the “Agonist IC50 (inhibitory phase, InsP formation)” value (human PAR1) was 80000 nM. The “Antagonist IC50 (InsP formation, against 0.1 nM thrombin)” value (human PAR1) was > 50000 nM.

B5: Bpal-18 (Pal-SGSRPTQAKLLAKKRVVR) (peptide)
peptide: Palmitoyl-SGSRPTQAKLLAKKRVVR-NH2
SMILES: CCCCCCCCCCCCCCCC(=O)N[C@@H](CO)C(=O)NCC(=O)N[C@@H](CO)C(=O)N[C@@H](CCCNC(=N)N)C(=O)N1CCC[C@H]1C(=O)N[C@H](C(=O)N[C@@H](CCC(N)=O)C(=O)N[C@@H](C)C(=O)N[C@@H](CCCCN)C(=O)N[C@@H](CC(C)C)C(=O)N[C@@H](CC(C)C)C(=O)N[C@@H](C)C(=O)N[C@@H](CCCCN)C(=O)N[C@@H](CCCCN)C(=O)N[C@@H](CCCNC(=N)N)C(=O)N[C@H](C(=O)N[C@H](C(=O)N[C@@H](CCCNC(=N)N)C(N)=O)C(C)C)C(C)C)[C@@H](C)O
B5 was tested, and the “Agonist EC50” value [3] was 1500 nM, the “Agonist Efficacy (% of full response to 300 nM CCK-8)” value [3] was 12% and the “Agonist IC50 (inhibitory phase, InsP formation)” value [3] was 10000 nM.

B6: P1pal-7 (Pal-KKSRALF) (peptide)
peptide: Palmitoyl-KKSRALF-NH2
B6 was tested, and the “Antagonist IC50 (InsP formation, against 0.1 nM thrombin)” value (human PAR1) was 1200 nM.

B7: S2pal-23F (Pal-KVRSSGIRVGSSKRKKSEKKVTF) (peptide)
peptide: Palmitoyl-KVRSSGIRVGSSKRKKSEKKVTF-NH2
SMILES: CCCCCCCCCCCCCCCC(=O)N[C@@H](CCCCN)C(=O)N[C@H](C(=O)N[C@@H](CCCNC(=N)N)C(=O)N[C@@H](CO)C(=O)N[C@@H](CO)C(=O)NCC(=O)N[C@H](C(=O)N[C@@H](CCCNC(=N)N)C(=O)N[C@H](C(=O)NCC(=O)N[C@@H](CO)C(=O)N[C@@H](CO)C(=O)N[C@@H](CCCCN)C(=O)N[C@@H](CCCNC(=N)N)C(=O)N[C@@H](CCCCN)C(=O)N[C@@H](CCCCN)C(=O)N[C@@H](CO)C(=O)N[C@@H](CCC(=O)O)C(=O)N[C@@H](CCCCN)C(=O)N[C@@H](CCCCN)C(=O)N[C@H](C(=O)N[C@H](C(=O)N[C@@H](Cc1ccccc1)C(N)=O)[C@@H](C)O)C(C)C)C(C)C)[C@@H](C)CC)C(C)C
In the case of B7, the “Agonist EC50” value [1] is reported as 100 nM, the “Agonist Efficacy (% of full response to extracellular agonist)” value [1] is reported as 15% and the “Agonist IC50 (inhibitory phase, InsP formation)” value [1] is reported as 500 nM. The “Antagonist IC50 (InsP formation, against 1 µM …)” value [1] was 3000 nM.

B8: MC4pal-14 (Pal-TGAIRQGANMKGAI) (peptide)
peptide: Palmitoyl-TGAIRQGANMKGAI-NH2
SMILES: CCCCCCCCCCCCCCCC(=O)N[C@H](C(=O)NCC(=O)N[C@@H](C)C(=O)N[C@H](C(=O)N[C@@H](CCCNC(=N)N)C(=O)N[C@@H](CCC(N)=O)C(=O)NCC(=O)N[C@@H](C)C(=O)N[C@@H](CC(N)=O)C(=O)N[C@@H](CCSC)C(=O)N[C@@H](CCCCN)C(=O)NCC(=O)N[C@@H](C)C(=O)N[C@H](C(N)=O)[C@@H](C)CC)[C@@H](C)CC)[C@@H](C)O
B8 was tested, and the “EC50, activating phase (adenylate cyclase)” value (MC4 receptor (MC4R)) was ~150 nM, the “IC50, inhibitory phase (adenylate cyclase)” value (MC4 receptor (MC4R)) was ~10000 nM and the “adenylate cyclase activity relative to alpha-MSH” value (MC4 receptor (MC4R)) was 40%.

B9: P1pal-13 (Pal-AVANRSKKSRALF) (peptide)
peptide: Palmitoyl-AVANRSKKSRALF-NH2
SMILES: CCCCCCCCCCCCCCCC(=O)N[C@@H](C)C(=O)N[C@H](C(=O)N[C@@H](C)C(=O)N[C@@H](CC(N)=O)C(=O)N[C@@H](CCCNC(=N)N)C(=O)N[C@@H](CO)C(=O)N[C@@H](CCCCN)C(=O)N[C@@H](CCCCN)C(=O)N[C@@H](CO)C(=O)N[C@@H](CCCNC(=N)N)C(=O)N[C@@H](C)C(=O)N[C@@H](CC(C)C)C(=O)N[C@@H](Cc1ccccc1)C(N)=O)C(C)C
With B9 the “Agonist EC50” value (human PAR1) was 700 nM and the “Agonist IC50 (inhibitory phase, InsP formation)” value (human PAR1) was 32000 nM.
